Measurements as given in the supplement of paper PMC5998384.

Experiments:
HeLa Kyoto [1] = test: melting temperature (median over replicates), in situ; higher = more thermally stable
HeLa Kyoto [2] = test: solubility change mitosis vs G1/S (difference of NP-40 vs SDS log2 ratios) (log2 ratio difference); higher = more soluble in mitosis
HeLa Kyoto [3] = test: thermal stability score vs G1/S (z-score of summed log2 fold changes over temperatures); higher = more thermally stable than in G1/S
HeLa Kyoto [4] = test: solubility in G1/S (NP-40 vs SDS abundance) (log2 ratio); higher = more soluble; conditions: cell cycle stage: G1/S
[5] = cell cycle stage: early G1 (4.5 h after nocodazole release)
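For melting temperature (median over replicates), in situ in this document: HeLa Kyoto cells synchronized by double thymidine or nocodazole block, proteins quantified by TMT10plex mass spectrometry, three independent biological replicates.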
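For solubility change mitosis vs G1/S (difference of NP-40 vs SDS log2 ratios) in this document: synchronized HeLa Kyoto cells (double thymidine block for G1/S, nocodazole release for mitosis), protein amounts in NP-40 versus SDS lysates quantified by mass spectrometry, three biological replicates.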
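For solubility in G1/S (NP-40 vs SDS abundance) in this document: HeLa Kyoto cells arrested at G1/S by double thymidine block, proteins quantified by TMT10plex mass spectrometry in mild NP-40 versus SDS extracts, three biological replicates.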
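For thermal stability score vs G1/S (z-score of summed log2 fold changes over temperatures) in this document: synchronized HeLa Kyoto cells, proteins quantified by TMT10plex mass spectrometry, three biological replicates, mitosis taken 0.5 h after nocodazole release, G1/S directly after double thymidine block.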

| Sequence | melting temperature (HeLa Kyoto [1]; cell cycle stage: mitosis) [°C] | solubility change mitosis (log2) (HeLa Kyoto [2]) | thermal stability score (HeLa Kyoto [3]; [5]) | thermal stability score (HeLa Kyoto [3]; cell cycle stage: mitosis) | solubility in G1/S (log2) (HeLa Kyoto [4]) | melting temperature (HeLa Kyoto [1]; cell cycle stage: G1/S) [°C] |
| --- | --- | --- | --- | --- | --- | --- |
| MPGKLLWGDIMELEAPLEESESQKKERQKSDRRKSRHHYDSDEKSETRENGVTDDLDAPKAKKSKMKEKLNGDTEEGFNRLSDEFSKSHKSRRKDLPNGDIDEYEKKSKRVSSLDTSTHKSSDNKLEETLTREQKEGAFSNFPISEETIKLLKGRGVTYLFPIQVKTFGPVYEGKDLIAQARTGTGKTFSFAIPLIERLQRNQETIKKSRSPKVLVLAPTRELANQVAKDFKDITRKLSVACFYGGTSYQSQINHIRNGIDILVGTPGRIKDHLQSGRLDLSKLRHVVLDEVDQMLDLGFAEQVEDIIHESYKTDSEDNPQTLLFSATCPQWVYKVAKKYMKSRYEQVDLVGKMTQKAATTVEHLAIQCHWSQRPAVIGDVLQVYSGSEGRAIIFCETKKNVTEMAMNPHIKQNAQCLHGDIAQSQREITLKGFREGSFKVLVATNVAARGLDIPEVDLVIQSSPPQDVESYIHRSGRTGRAGRTGICICFYQPRERGQLRYVEQKAGITFKRVGVPSTMDLVKSKSMDAIRSLASVSYAAVDFFRPSAQRLIEEKGAVDALAAALAHISGASSFEPRSLITSDKGFVTMTLESLEEIQDVSCAWKELNRKLSSNAVSQITRMCLLKGNMGVCFDVPTTESERLQAEWHDSDWILSVPAKLPEIEEYYDGNTSSNSRQRSGWSSGRSGRSGRSGGRSGGRSGRQSRQGSRSGSRQDGRRRSGNRNRSRSGGHKRSFD [DDX50] | 50.4 | 0.879 | 1.27 | 2.08 | -1.4 |  |
| MGLLAFLKTQFVLHLLVGFVFVVSGLVINFVQLCTLALWPVSKQLYRRLNCRLAYSLWSQLVMLLEWWSCTECTLFTDQATVERFGKEHAVIILNHNFEIDFLCGWTMCERFGVLGSSKVLAKKELLYVPLIGWTWYFLEIVFCKRKWEEDRDTVVEGLRRLSDYPEYMWFLLYCEGTRFTETKHRVSMEVAAAKGLPVLKYHLLPRTKGFTTAVKCLRGTVAAVYDVTLNFRGNKNPSLLGILYGKKYEADMCVRRFPLEDIPLDEKEAAQWLHKLYQEKDALQEIYNQKGMFPGEQFKPARRPWTLLNFLSWATILLSPLFSFVLGVFASGSPLLILTFLGFVGAASFGVRRLIGVTEIEKGSSYGNQEFKKKE [AGPAT3] | 52.4 | -0.0117 | -0.691 | -1.45 | -0.0836 | 52.2 |
| MWTFLGIATFTYFYKKFGDFITLANREVLLCVLVFLSLGLVLSYRCRHRNGGLLGRQQSGSQFALFSDILSGLPFIGFFWAKSPPESENKEQLEARRRRKGTNISETSLIGTAACTSTSSQNDPEVIIVGAGVLGSALAAVLSRDGRKVTVIERDLKEPDRIVGEFLQPGGYHVLKDLGLGDTVEGLDAQVVNGYMIHDQESKSEVQIPYPLSENNQVQSGRAFHHGRFIMSLRKAAMAEPNAKFIEGVVLQLLEEDDVVMGVQYKDKETGDIKELHAPLTVVADGLFSKFRKSLVSNKVSVSSHFVGFLMKNAPQFKANHAELILANPSPVLIYQISSSETRVLVDIRGEMPRNLREYMVEKIYPQIPDHLKEPFLEATDNSHLRSMPASFLPPSSVKKRGVLLLGDAYNMRHPLTGGGMTVAFKDIKLWRKLLKGIPDLYDDAAIFEAKKSFYWARKTSHSFVVNILAQALYELFSATDDSLHQLRKACFLYFKLGGECVAGPVGLLSVLSPNPLVLIGHFFAVAIYAVYFCFKSEPWITKPRALLSSGAVLYKACSVIFPLIYSEMKYMVH [SQLE] | 53.3 | -0.0643 | -0.599 | -0.00194 | -0.21 | 52.7 |
| MAASMCDVFSFCVGVAGRARVSVEVRFVSSAKGKGLFATQLIRKGETIFVERPLVAAQFLWNALYRYRACDHCLRALEKAEENAQRLTGKPGQVLPHPELCTVRKDLHQNCPHCQVMYCSAECRLAATEQYHQVLCPGPSQDDPLHPLNKLQEAWRSIHYPPETASIMLMARMVATVKQAKDKDRWIRLFSQFCNKTANEEEEIVHKLLGDKFKGQLELLRRLFTEALYEEAVSQWFTPDGFRSLFALVGTNGQGIGTSSLSQWVHACDTLELKPQDREQLDAFIDQLYKDIEAATGEFLNCEGSGLFVLQSCCNHSCVPNAETSFPENNFLLHVTALEDIKPGEEICISYLDCCQRERSRHSRHKILRENYLFVCSCPKCLAEADEPNVTSEEEEEEEEEEEGEPEDAELGDEMTDV [SMYD5] | 53.1 | -0.154 | 1.21 | -0.768 | -0.147 | 53.4 |
| MEVKGKKQFTGKSTKTAQEKNRFHKNSDSGSSKTFPTRKVAKEGGPKVTSRNFEKSITKLGKKGVKQFKNKQQGDKSPKNKFQPANKFNKKRKFQPDGRSDESAAKKPKWDDFKKKKKELKQSRQLSDKTNYDIVVRAKQMWEILRRKDCDKEKRVKLMSDLQKLIQGKIKTIAFAHDSTRVIQCYIQYGNEEQRKQAFEELRDDLVELSKAKYSRNIVKKFLMYGSKPQIAEIIRSFKGHVRKMLRHAEASAIVEYAYNDKAILEQRNMLTEELYGNTFQLYKSADHRTLDKVLEVQPEKLELIMDEMKQILTPMAQKEAVIKHSLVHKVFLDFFTYAPPKLRSEMIEAIREAVVYLAHTHDGARVAMHCLWHGTPKDRKVIVKTMKTYVEKVANGQYSHLVLLAAFDCIDDTKLVKQIIISEIISSLPSIVNDKYGRKVLLYLLSPRDPAHTVREIIEVLQKGDGNAHSKKDTEVRRRELLESISPALLSYLQEHAQEVVLDKSACVLVSDILGSATGDVQPTMNAIASLAATGLHPGGKDGELHIAEHPAGHLVLKWLIEQDKKMKENGREGCFAKTLVEHVGMKNLKSWASVNRGAIILSSLLQSCDLEVANKVKAALKSLIPTLEKTKSTSKGIEILLEKLST [PUM3] | 50 | 0.758 | 1.46 | 3.65 | -1.05 | 46.6 |
| MAASMFYGRLVAVATLRNHRPRTAQRAAAQVLGSSGLFNNHGLQVQQQQQRNLSLHEYMSMELLQEAGVSVPKGYVAKSPDEAYAIAKKLGSKDVVIKAQVLAGGRGKGTFESGLKGGVKIVFSPEEAKAVSSQMIGKKLFTKQTGEKGRICNQVLVCERKYPRREYYFAITMERSFQGPVLIGSSHGGVNIEDVAAESPEAIIKEPIDIEEGIKKEQALQLAQKMGFPPNIVESAAENMVKLYSLFLKYDATMIEINPMVEDSDGAVLCMDAKINFDSNSAYRQKKIFDLQDWTQEDERDKDAAKANLNYIGLDGNIGCLVNGAGLAMATMDIIKLHGGTPANFLDVGGGATVHQVTEAFKLITSDKKVLAILVNIFGGIMRCDVIAQGIVMAVKDLEIKIPVVVRLQGTRVDDAKALIADSGLKILACDDLDEAARMVVKLSEIVTLAKQAHVDVKFQLPI [SUCLA2] | 49.8 | -0.0729 | -0.13 | 1.1 | 0.0965 | 49.7 |
